The values below come from patent US20200255483A1.

The target of experiment [1] is RAS proteins (endogenous, in cells). Kind of experiment: cell-based or functional assay.
For experiment [2], the target named is diphtheria toxin receptor (heparin-binding epidermal growth factor-like growth factor, HB-EGF) on Vero cells (UniProt Q09118). Kind of experiment: cell-based or functional assay.

In experiment [1], RRSP-Δdta-dtB (enzyme) showed an EC50 of loss of RAS proteins in HeLa cells (immunoblot) of 1 pM and a potency of RAS loss in HeLa cells against RRSP-dta-dtB of 300 fold. Consider dtA-eGFP-dta-dtB, for which, in experiment [2], the EC50 of inhibition of protein synthesis (3H-leucine incorporation) in Vero cells, in the presence of 1 nM nontoxic DT came to 215 pM and the EC50 of inhibition of protein synthesis (3H-leucine incorporation) in Vero cells, without competitor was 3.8 pM.

Consider RRSP-APD-Δdta-dtB (enzyme), for which, in experiment [1], the EC50 of loss of RAS proteins in HeLa cells (immunoblot) was 1 pM and the potency of RAS loss in HeLa cells against RRSP-dta-dtB stood at 300 fold. In experiment [1], RRSP-dta-dtB (enzyme) gave an EC50 of loss of total RAS proteins in HeLa cells after 24 h (immunoblot with anti-RAS antibody) of 250 pM.
